Assay [1] concerns the target second voltage-sensing domain (VSD-II) of the human NaV1.4 channel, residues 554-696, with C660S, C661S and C687S (human) (UniProt P35499). Nature of the assay: NMR titration; 15N-labeled VSD-II titrated with unlabeled Hm-3 in buffer B with DPC/LDAO micelles (11/11 mM), pH 5.5, 45°C, 800 MHz; chemical shifts fitted with two sites on VSD-II and Hm-3 partitioning to micelles (K M = 90 μM).

The target of assay [2] is single A140C mutant of the VSD of KVAP channel. Kind of assay: SEC; Superdex 200 in 20-mM Tris-HCl, 150-mM NaCl, pH 5.5, 0.3% DPC, calibrated by Stokes radii; with SDS-PAGE; VSD-KVAP A140C also after 1.5-mM DTT.

Experimental findings from paper PMC6737007 are described below.

Regarding “gating modifier toxin Hm-3 from the crab spider Heriaeus melloteei (peptide)”, in assay [1], the KD (K V), cytoplasmic binding site came out at 7 µM and the KD (K V), extracellular binding site was found to be 11 µM. “single A140C mutant of the VSD of KVAP channel (domain or fragment)”: the stoichiometry N in assay [2] was 2.
